Results published in PMC8750214.

What was measured:
[1] = flow cytometry of surface 4-1BB, Jurkat; details: glycan lost; control: wild type
[2] = immunoblot of total 4-1BB, Jurkat; details: glycan lost; control: wild type

In the case of 4-1BB (CD137/TNFRSF9): N149Q, the localisation_or_trafficking [1] is reported as “no change”.
With 4-1BB (CD137/TNFRSF9): N138Q the localisation_or_trafficking [1] was “decreases” and the expression_or_secretion [2] was “no change”.
